# From publication PMC12394075, “Domain coupling in activation of a family C GPCR” (Nature Chemical Biology, 2024)
# B1: full-length mGluR2 (FLAG-tagged, purified in detergent micelles) (receptor, rat, UniProt P31421 19-872, looked up)
# chain: EGPAKKVLTLEGDLVLGGLFPVHQKGGPAEECGPVNEHRGIQRLEAMLFALDRINRDPHLLPGVRLGAHILDSCSKDTHALEQALDFVRASLSRGADGSRHICPDGSYATHSDAPTAVTGVIGGSYSDVSIQVANLLRLFQIPQISYASTSAKLSDKSRYDYFARTVPPDFFQAKAMAEILRFFNWTYVSTVASEGDYGETGIEAFELEARARNICVATSEKVGRAMSRAAFEGVVRALLQKPSARVAVLFTRSEDARELLAATQRLNASFTWVASDGWGALESVVAGSERAAEGAITIELASYPISDFASYFQSLDPWNNSRNPWFREFWEERFHCSFRQRDCAAHSLRAVPFEQESKIMFVVNAVYAMAHALHNMHRALCPNTTHLCDAMRPVNGRRLYKDFVLNVKFDAPFRPADTDDEVRFDRFGDGIGRYNIFTYLRAGSGRYRYQKVGYWAEGLTLDTSFIPWASPSAGPLPASRCSEPCLQNEVKSVQPGEVCCWLCIPCQPYEYRLDEFTCADCGLGYWPNASLTGCFELPQEYIRWGDAWAVGPVTIACLGALATLFVLGVFVRHNATPVVKASGRELCYILLGGVFLCYCMTFVFIAKPSTAVCTLRRLGLGTAFSVCYSALLTKTNRIARIFGGAREGAQRPRFISPASQVAICLALISGQLLIVAAWLVVEAPGTGKETAPERREVVTLRCNHRDASMLGSLAYNVLLIALCTLYAFKTRKCPENFNEAKFIGFTMYTTCIIWLAFLPIFYVTSSDYRVQTTTMCVSVSLSGSVVLGCLFAPKLHIILFQPQKNVVSHRAPTSRFGSAAPRASANLGQGSGSQFVPTVCNGREVVDSTTSSL
# notes: also called full-length mGluR2 construct; full-length receptor
# Biological target: the molecule itself
# Experiment: SEC; Superose 6 10/300 increase GL equilibrated in detergent-free buffer, after elution in 0.005% MNG/GDN/CHS
protein,measurement,value
B1,binding result,binds
